Here are results for 94 variants from the supplement of paper PMC10567573.

B1: PLAGL1 (parent)
chain: EKPPSGTKEKKHQCDHCERCFYTR
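Further: lentivirally expressed fusions sorted by FACS into six bins by GFP to DsRed ratio, PSI derived from sequencing read proportions per bin multiplied by bin number.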

This data set covers variants of B1. Briefly: protein stability index of a GFP-peptide fusion (GPS, HEK-293T) (PSI 1-6); higher = more stable. The settings on record: c terminus: a fixed tail appended.
As to EKPPSSTKEKKHQCDHCERCFYTR [G6S], the protein stability index came to 3.27.
On to EKPPSFTKEKKHQCDHCERCFYTR [G6F], for which the protein stability index worked out at 3.79.
For the variant EKPPSHTKEKKHQCDHCERCFYTR [G6H], the protein stability index came out at 3.68.
EKPPSPTKEKKHQCDHCERCFYTR [G6P]: the protein stability index came to 4.37.
EKPPSATKEKKHQCDHCERCFYTR [G6A]: the protein stability index is 3.32.
For the variant EKPPSMTKEKKHQCDHCERCFYTR [G6M], the protein stability index worked out at 3.39.
Turning to EKPPSWTKEKKHQCDHCERCFYTR [G6W], the protein stability index came out at 3.13.
On to EKPPSDTKEKKHQCDHCERCFYTR [G6D], for which the protein stability index worked out at 3.88.
On to EKPPSCTKEKKHQCDHCERCFYTR [G6C], for which the protein stability index came out at 4.57.
The value for EKPPSETKEKKHQCDHCERCFYTR [G6E] was 4.09; that for EKPPSTTKEKKHQCDHCERCFYTR [G6T] was 4.61.
EKPPSRTKEKKHQCDHCERCFYTR [G6R]: the protein stability index is 3.07.
With EKPPSNTKEKKHQCDHCERCFYTR [G6N], the protein stability index turned out to be 3.36.
Turning to EKPPSGTKEKKHQCDKCERCFYTR [H16K], the protein stability index amounted to 4.02.
For EKPPSGTKEKKHQCDFCERCFYTR [H16F], the protein stability index worked out at 3.5.
EKPPSGTKEKKHQCDICERCFYTR [H16I]: the protein stability index was 2.76.
EKPPSGTKEKKHQCDECERCFYTR [H16E]: the protein stability index was 4.17.
In the case of EKPPSGTKEKKHQCDNCERCFYTR [H16N], the protein stability index is 4.72.
The value for EKPPSGTKEKKHQCDVCERCFYTR [H16V] was 3.08.
For EKPPSGTKEKKHQCDCCERCFYTR [H16C], the protein stability index is 2.52.
Consider EKPPSGTKEKKHQCDHLERCFYTR [C17L], for which the protein stability index is 4.
As for EKPPSGTKEKKHQCDHFERCFYTR [C17F], the protein stability index is 3.4.
The value for EKPPSGTKEKKHQCDHDERCFYTR [C17D] was 3.97; that for EKPPSGTKEKKHQCDHWERCFYTR [C17W] was 3.13; that for EKPPSGTKEKKHQCDHTERCFYTR [C17T] was 3.48.
Regarding EKPPSGTKEKKHQCDHSERCFYTR [C17S], the protein stability index was 3.63.
For EKPPSGTKEKKHQCDHCERFFYTR [C20F], the protein stability index came to 2.56.
As to EKPPSGTKEKKHQCDHCERYFYTR [C20Y], the protein stability index was determined as 2.66.
The value for EKPPSGTKEKKHQCDHCERSFYTR [C20S] was 1.74; that for EKPPSGTKEKKHQCDHCERRFYTR [C20R] was 1.98.
As for EKPPSGTKEKKHQCDHCERTFYTR [C20T], the protein stability index turned out to be 3.04.
Take EKPPSGTKEKKHQCDHCERAFYTR [C20A]: the protein stability index was found to be 2.48.
Under EKPPSGTKEKKHQCDHCERPFYTR [C20P] stands 3.07; under EKPPSGTKEKKHQCDHCERMFYTR [C20M], 2.23; under EKPPSGTKEKKHQCDHCERVFYTR [C20V], 3.06.
The value for EKPPSGTKEKKHQCDHCERDFYTR [C20D] was 2.59; that for EKPPSGTKEKKHQCDHCERHFYTR [C20H] was 2.58.
With EKPPSGTKEKKHQCDHCERCFYTM [R24M], the protein stability index came to 4.68.
As for EKPPSGTKEKKHQCDHCERCFYTH [R24H], the protein stability index was 4.67.
Regarding EKPPSGTKEKKHQCDHCERCFYTS [R24S], the protein stability index amounted to 4.33.
On to EKPPSGTKEKKHQCDHCERCFYTI [R24I], for which the protein stability index amounted to 4.37.
Turning to EKPPSGTKEKKHQCDHCERCFYTY [R24Y], the protein stability index stood at 3.96.
EKPPSGTKEKKHQCDHCERCFYTP [R24P]: the protein stability index amounted to 4.9.
The value for EKPPSGTKEKKHQCDHCERCFYTD [R24D] was 5.07; that for EKPPSGTKEKKHQCDHCERCFYTA [R24A] was 4.68.
On to EKPPSGTKEKKHQCDHCERCFYTV [R24V], for which the protein stability index amounted to 4.07.
Under EKPPSGTKEKYHQCDHCERCFYTR [K11Y] stands 3.81; under EKPPSGTKEKRHQCDHCERCFYTR [K11R], 3.71.
The value for EKPPSGTKEKLHQCDHCERCFYTR [K11L] was 3.97; that for EKPPSGTKEKGHQCDHCERCFYTR [K11G] was 4.29; that for EKPPSGTKEKIHQCDHCERCFYTR [K11I] was 3.71.
With EKPPSGTKEKKHQCDHCEHCFYTR [R19H], the protein stability index came to 4.21.
The value for EKPPSGTKEKKHQCDHCETCFYTR [R19T] was 3.52; that for EKPPSGTKEKKHQCDHCEFCFYTR [R19F] was 3.69.
For EKPPSGTKEKKHQCDHCEPCFYTR [R19P], the protein stability index worked out at 3.3.
EKPPSGTKEKKHQCDHCEECFYTR [R19E]: the protein stability index was determined as 4.54.
For the variant EKPPSGTKEKKHQCDHCEICFYTR [R19I], the protein stability index was determined as 3.52.
For the variant EKPPSGTKEKKHQCDHCELCFYTR [R19L], the protein stability index is 3.45.
As for EKPPSGTCEKKHQCDHCERCFYTR [K8C], the protein stability index worked out at 4.24.
Consider EKPPSGTEEKKHQCDHCERCFYTR [K8E], for which the protein stability index worked out at 4.4.
Under EKPPSGTREKKHQCDHCERCFYTR [K8R] stands 3.48; under EKPPSGTTEKKHQCDHCERCFYTR [K8T], 3.48; under EKPPSGTYEKKHQCDHCERCFYTR [K8Y], 3.47.
Consider EKPPHGTKEKKHQCDHCERCFYTR [S5H], for which the protein stability index turned out to be 3.83.
For the variant EKPPKGTKEKKHQCDHCERCFYTR [S5K], the protein stability index worked out at 3.88.
For EKPPAGTKEKKHQCDHCERCFYTR [S5A], the protein stability index is 3.17.
As to EKPPLGTKEKKHQCDHCERCFYTR [S5L], the protein stability index stood at 3.75.
As for EKPPMGTKEKKHQCDHCERCFYTR [S5M], the protein stability index was found to be 3.48.
The value for EKPPDGTKEKKHQCDHCERCFYTR [S5D] was 4.16; that for EKPPCGTKEKKHQCDHCERCFYTR [S5C] was 3.72.
For EKPPSGTKEKKHFCDHCERCFYTR [Q13F], the protein stability index is 3.2.
Regarding EKPPSGTKEKKHECDHCERCFYTR [Q13E], the protein stability index is 4.31.
In the case of EKPPSGTKEKKHTCDHCERCFYTR [Q13T], the protein stability index was 3.29.
For the variant EKPPSGTKEKKHGCDHCERCFYTR [Q13G], the protein stability index came to 2.34.
Take EKPPSGTKEKKHSCDHCERCFYTR [Q13S]: the protein stability index worked out at 3.25.
Consider EKPPSGTKEKKHICDHCERCFYTR [Q13I], for which the protein stability index came to 3.21.
With EKPPSGTKEKKHPCDHCERCFYTR [Q13P], the protein stability index stood at 2.52.
EKPPSGTKEKKHMCDHCERCFYTR [Q13M]: the protein stability index was found to be 3.55.
As to EVPPSGTKEKKHQCDHCERCFYTR [K2V], the protein stability index came to 3.86.
As for EWPPSGTKEKKHQCDHCERCFYTR [K2W], the protein stability index was found to be 3.67.
On to ETPPSGTKEKKHQCDHCERCFYTR [K2T], for which the protein stability index worked out at 3.52.
The value for EQPPSGTKEKKHQCDHCERCFYTR [K2Q] was 4.12.
For ESPPSGTKEKKHQCDHCERCFYTR [K2S], the protein stability index turned out to be 3.95.
For the variant EMPPSGTKEKKHQCDHCERCFYTR [K2M], the protein stability index was determined as 2.93.
Turning to ERPPSGTKEKKHQCDHCERCFYTR [K2R], the protein stability index was found to be 3.27.
With EDPPSGTKEKKHQCDHCERCFYTR [K2D], the protein stability index turned out to be 4.26.
EYPPSGTKEKKHQCDHCERCFYTR [K2Y]: the protein stability index is 3.17.
Under EKPPSGTKEQKHQCDHCERCFYTR [K10Q] stands 3.53; under EKPPSGTKECKHQCDHCERCFYTR [K10C], 4.3; under EKPPSGTKEMKHQCDHCERCFYTR [K10M], 3.76.
For EKPPSGTKELKHQCDHCERCFYTR [K10L], the protein stability index came to 4.04.
For the variant EKPPSGTKEYKHQCDHCERCFYTR [K10Y], the protein stability index came to 3.81.
The value for EKPPSGTKEDKHQCDHCERCFYTR [K10D] was 4.05.
For EKPPSGTKEWKHQCDHCERCFYTR [K10W], the protein stability index stood at 3.55.
